Experiment: yeast display, Sf9 membrane polyspecificity reagent, FACS + sequencing; frameworks hold sequencing errors
How it was run: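 After 36–48 hours of galactose induction, yeast (Saccharomyces cerevisiae BJ5465) displaying a synthetic nanobody library were stained at 4 °C for 1 hour with 10% biotinylated, detergent-solubilized Sf9 membrane reagent. Streptavidin microbeads enriched the stained cells before FACS sorting into low and high (top ~1%) gates on anti-HA and streptavidin fluorescence. Each clone's polyreactivity label reflects its gate of origin.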

| Sequence | polyreactivity (PSR sort gate) |
| --- | --- |
| QVQLVESGGGLVQAGGSLRLSCAASGSIILQNAMGWYRQAPGKERELVAAITNGGSTNYADSVKGRFTISRDNAKNTVYLQMNSLKPEDTAVYYCAAYPLYTGSYDRGGYWGQGTQVTVSS | low polyreactivity |
| QVQLVESGGGLVQAGGSLRLSCAASGSIINRYAMGWYRQARGKERELVAAITQSGGRTYYADSVKGRFTISRDNAKNTVYLQMNSLKPEDTAVYYCAKAGWPGSYIYYRFRVGYDSWGQGTQVTVSS | high polyreactivity |
| QVQLVESGGGLVQAGGSLRLSCAASGSIIQGYAMGWYRQAPGKERELVAVITTSGGSTYYADSVKGRFTISRDNAKNTVYLQMNSLKPEDTAVYYCAVGLLVYSRTYIGQAYFRYNYWGQGTQVTVSS | high polyreactivity |
| QVQLVESGGGLVQAGGSLRLSCAASGSIIQGYAMGWYRQEPGKERELVAAITGDGTTNYADSVKGRFTISRDNAKNNVYLQMNSLKPEDTAVYYCSATGLFNKFHGYGYLGQGTQVTVSS | low polyreactivity |
| QVQLVESGGGLVQAGGSLRLSCAASGSIIQGYVMGWYRQAPGKERELDAAISNSGSSTYYADSVKGRFTISRDNAKNTVYLQMNSLKPEDTAVYYCAVLRSYRGSKYGYWGQGTQVTVSS | high polyreactivity |
| QVQLVESGGGLVQAGGSLRLSCAASGSIIRTYAMGWYRQAPGKERELVAAISGSGSRTYYADSVKGRFTISRDNAKNTVYLQMNSLKPEDSAVYYCAADPGTPRYQFLWYGYWGQGTQVTVSS | low polyreactivity |
| QVQLVESGGGLVQAGGSLRLSCAASGSIIRTYVMGWYRQAPGKERELVAAITYSGGRTYYADSVKGRFTISRDNAKNTVYLQMNSLKPEDTAVYYCAARSPRPSAIYDYWGQGTQVTVSS | high polyreactivity |
| QVQLVESGGGLVQAGGSLRLSCAASGSIISANAMGWYRQAPGKESELVAAITSGDSTKYADSVKGRFTISRDNAKNTVYLQMNSLKPEDTAVYYCAVDRGVYKNRDGEEYWGQGTQVTVSS | low polyreactivity |
| QVQLVESGGGLVQAGGSLRLSCAASGSIISRTVMGWYRQAPGKEREFVATISRSGGITYYADSVKGRFTISRDNAKNTVYLQMNSLKPEDTAVYYCAAGKFVSFPSHYGYWGQGTQVTVSS | high polyreactivity |
| QVQLVESGGGLVQAGGSLRLSCAASGSIISVYVMGWYRQAPGTERELVASITSGASTNYADSVKGRFTISRDNETNTVYLQMNSLKPEDTAVYYCAARDWYDGFYYWGQGTQVTVSS | low polyreactivity |
| QVQLVESGGGLVQAGGSLRLSCAASGSIITINAMGWYRQAPGKERELVAAISKRGGSTYYADSVKGRFTISSDNGKHTVYLQLNSLKPEDTAFYYCNAREYIHWRGALGLFGSWGQGTQVNVSS | high polyreactivity |
| QVQLVESGGGLVQAGGSLRLSCAASGSIITSYTMGWYRQAPGKERELVAAISRSGGSTYYADSVKGRFTISRDNAKNTVYLQMNSLKPEDTAVYYCAARQSKLRRETPNDYWGQGTQVTVSS | high polyreactivity |
| QVQLVESGGGLVQAGGSLRLSCAASGSIIYRYAMGWYRQAPGKEMELVAAISTAGSTNYADSVKGRFTISRDNAKNTVYLLMNCLKPEDTAVYYCAAKSYRGRTQRSYGYWGQGTQVSVSS | low polyreactivity |
| QVQLVESGGGLVQAGGSLRLSCAASGSILADYAMGWDRQAPGKERELVAGISSGGSTNYADSVKGRFTISRDNAKNTVYLQMNSLKPEDTAVYYCNADQDFLFIGYLFDYWGQGTQVTVSS | low polyreactivity |
| QVQLVESGGGLVQAGGSLRLSCAASGSILADYAMGWYRQAPGKERELVAGISSGGSTNYADSVKGRFTISRDNAKNTVYLQMNSLKPEDTAVYYCNADQDFLFIGYLFDYWGQGTQVTVSS | low polyreactivity |
| QVQLVESGGGLVQAGGSLRLSCAASGSILAGYAMGWYRQAPGKERELVAAITTGGGSTYYADSVKGRFTISRDNAKNTVYLQMNSLKPEDTAVYYCAAYRKPGSWTWWVRGYGYWGQGTQVTVSS | low polyreactivity |
| QVQLVESGGGLVQAGGSLRLSCAASGSILARYAMGWYRQAPGKERELVAAISSRGGSTYYADSVKGRFTISRDNAKNTVYLQMNSLKPEDTAVYYCAAYVYLQVEYDYWGQGTQVTVSS | low polyreactivity |
| QVQLVESGGGLVQAGGSLRLSCAASGSILASYAMGWYRPAPGKERELVAAISWNGARSYYADSVKGRFTISRDNAKNTVYLQMNSLKPEDTAVYYCAGVRVGRTTFDYWGQGTQVTVSS | low polyreactivity |
| QVQLVESGGGLVQAGGSLRLSCAASGSILASYAMGWYRQAPGKERELVAAIRTSGDRTYYADSVKGRFTISRDNAKNTVYLQMNSLKPEDTAVYYCAATYRYRPYSYYQYYSWGQGTQVTVSS | high polyreactivity |
| QVQLVESGGGLVQAGGSLRLSCAASGSILAYNAMGWYRQAPGKERELVASITTSGGSTYYADSVKGRFTISRDNAKNTVYLQMNSLKPEDTAVYYCNAEYWLGRWLRYGYWGQGTQVTVSS | high polyreactivity |
| QVQLVESGGGLVQAGGSLRLSCAASGSILAYYAMGWYRQAPGKERELVADITSSGGITYYADSVKGRFTISRDNAKNTVYLQMNSLKPEDTAVYYCNADSWAIGGGSYPYDYWGQGTQVTVSS | low polyreactivity |
| QVQLVESGGGLVQAGGSLRLSCAASGSILDLNAMGWYRQAPGKERELVAAISYSGDSTYYADSVKGRFTISRDNAKNTVYLQMNSLKPEDTAVYYCNAASFSDQGTLNHFYDWGQGTQVTVSS | low polyreactivity |

| Sequence | polyreactivity (PSR sort gate) |
| --- | --- |
| QVQLVESGGGLVQAGGSLRLSCAASGSILDPYAMGWYRQAPGKERELVADISSGASTNYADSVKGRFTISRDNAKNTVYLQMNSLKPEDTAVYYCAAVYVEYSEYRYIVELYYWGQGTQVTVSS | low polyreactivity |
| QVQLVESGGGLVQAGGSLRLSCAASGSILDYYVMGCSRQSPGKERELVAAIRGGGSTYYADSVKGRFTISRDNAKNTVYLQMNSLKPEDTAVYYCAKDSQTARDFDYWGQGTQVTVSS | low polyreactivity |
| QVQLVESGGGLVQAGGSLRLSCAASGSILEIYAMGWYRPAPGKEREFVASISWDVSSTYYADSVKGRFTISRDNAKNTVYLQMNSLKPEDTAVYYCATSLVWGLYDWYYDLSAAFDYWGQGTQVTVSS | low polyreactivity |
| QVQLVESGGGLVQAGGSLRLSCAASGSILEIYAMGWYRQAPGKEREVVASISWDVSSTYYADSVKGRFTISRDNAKNTVYLQMNSLKPEDTAVYYCATSLVWGLYDWYYDLSAAFDYWGQGTQVTVSS | low polyreactivity |
| QVQLVESGGGLVQAGGSLRLSCAASGSILEPYAMGWYRQAPGKERELVATIRRGGSTYYADSVKGRFTISRDNAKNTVYLQMNSLKPEDTAVYYCAADRSVQVTFDYWGQGTQVTVSS | low polyreactivity |
| QVQLVESGGGLVQAGGSLRLSCAASGSILFKNAMGWYRQAPGKERELVAAISTSGGRTYYADSVKGRFTISRDNAKNTVYLEMNSLKPEDTAVYYCAAVYPRQVSQVWRDDYWGQGTQVTVSS | high polyreactivity |
| QVQLVESGGGLVQAGGSLRLSCAASGSILFYYAMGWYRQAPGKERELVAAITWRGGSTYYADSVKGRFTISRDNAKNTVYLQMNSLKPEDTAVYYCAADLYWYRYYGYDYWGQGTQVTVSS | low polyreactivity |
| QVQLVESGGGLVQAGGSLRLSCAASGSILGFNAMGWYRQPPGKERELVAAIRWSGDSTYADSVKGRFTISRDNAKNSVYLQMNSLKPEDTAVYYCNAVTTYGYWYKYDYWGQGTQVTVSS | low polyreactivity |
| QVQLVESGGGLVQAGGSLRLSCAASGSILGRYAMGWYRQAPGKERELVAVITSGGSTNYADSVKGRFTISRDNAKNTVYLQMNSLKPEDTAVYYCAVRPYELHRLADQPGGDDYWGQGTQVTVSS | low polyreactivity |
| QVQLVESGGGLVQAGGSLRLSCAASGSILGSYAMGWYRQAPGKERELVAAISWNGARTYYADSVKGRFTISRDNAKNTVYLQMNSLKPEDTAVYYCARVRVGRTTFDYWGQGTQVTVSS | low polyreactivity |
| QVQLVESGGGLVQAGGSLRLSCAASGSILGTYAMGWYRQAPGKERELVAAISWNGGSTYYADSVKGRFTISRDNAKNTVYLQMNSLKPEYTAVYYCAARQWSQGWYDYWGQGTQVTLSS | high polyreactivity |
| QVQLVESGGGLVQAGGSLRLSCAASGSILGWYAMGWYRQAPGKERQLVAAISYSGTSTYYADSVKGRFTISRDNAKNPVYLQMNSLNPEDTAVYYCNAFFSSRYYRVGSGYDYWGQGTQVTVSS | high polyreactivity |
| QVQLVESGGGLVQAGGSLRLSCAASGSILGYYAMGWYRPAPGKERELVAAISGRGGSTYYADSVKGRFTISRDNAKNTVYLQMNSLKPEDTAVYYCAVVWGSYYWGQGGGDYWGQGTQVTVSS | high polyreactivity |
| QVQLVESGGGLVQAGGSLRLSCAASGSILLNNAMGWYRQAPGKERELVAAISLSGGGSTYYADSVKGRFTISRDNAKNTVYLQMNSLKPEDTAVYYCNADDPYLYYDSYDYWGQGTQVTVSS | low polyreactivity |
| QVQLVESGGGLVQAGGSLRLSCAASGSILLYYTMGWYIQAPGKEWELVAAISWSGGSTYYADSVKGRFTISRDNAKNTVYLLMISLKPEDTAVYYCATRSVQGSYFAGYGYWGQGTQVTVSS | low polyreactivity |
| QVQLVESGGGLVQAGGSLRLSCAASGSILNAYAMGWYRQAPGKERELVAAITGSDGSTYYADSVKGRFTISRDNAKNTVYLQMNSLKPEDTAVYYCNADYSQPVYWWLDDYWGHGTQVTVSS | low polyreactivity |
| QVQLVESGGGLVQAGGSLRLSCAASGSILNFYAMGWYRQAPGKERELVAAISSGGSTNYADSVKGRFTISRDNAKNTVYLQMNSLKPEDTAVYYCAATGGDRYEAYYYWGQGTQVTVSS | low polyreactivity |
| QVQLVESGGGLVQAGGSLRLSCAASGSILNPNAMGWSRQAPGKERELVASISKSGGSTYYADSVKGRFTISRDNAKNTVYLQMNSLKPEDTAVYYCAAAFVSVRERYGYWGQGTQVTVSS | high polyreactivity |
| QVQLVESGGGLVQAGGSLRLSCAASGSILPLYAMGWYRQAPGKERELVATISNAGSTTYADSVKGRFTISRDNAKNTVYLQMHSLKPEVTAVYYCNAESEWGWVYVGYDYWGQGTQVTVSS | low polyreactivity |
| QVQLVESGGGLVQAGGSLRLSCAASGSILPRYGMGWYSQAPGKEREFVAAISWRGGRTYYADSVKGRFTISRDTAKHTVYVQMNSLKPEDTAVYYCAARAHIYTRLDYWGQGTEVTVSS | high polyreactivity |
| QVQLVESGGGLVQAGGSLRLSCAASGSILQSYAMGWYRQAPGKERELVAAISGSGGSTYYADSVKGRFTISRDNAKNTVYLQMNSLKPEDTAVYYCAKGPLYRTSRGEFGYWGQGTQVTVAS | low polyreactivity |

Source: the nanobody polyreactivity screen of Harvey et al. (2022)
